# Test results as given in paper PMC11952088 (Science Advances, 2025).
# B1: AZD3152 (antibody, V domains shown)
# VH: EVQLVESGGGLVQPGRSLRLSCAASGFPFDDYAIHWVRLAPGKGLEWVSSISWDSGSIGYADSVKGRFTISRDNAKNSLYLQMNSLRAEDTALYYCAKGAFPGYSSGWYYGLEVWGQGTTVTVSS
# VL: QSVVTQPPSASGSLGQSVTISCTGTSSDVGGYNYVSWYQQHPGKAPKLMIFEVSKRPSGVPDRFSGSKSGNTASLTVSGLQAEDEADYYCSSYAGNKGVFGGGTKLTVL
# Biological target: SARS-CoV-2 XBB.1.5 RBD (BLI) (SARS-CoV-2, Omicron XBB.1.5, strain)
# Assay: BLI
# Details: both partners purified
binder,measurement,value
B1,Kd,2 nM
